# Measurements published in patent publication US7070943B2 (priority 1998, dated 2006).
# B1: ONCONASE®: basic protein of 12,000 MW isolated from oocytes or early embryos of Rana pipiens, homologous to pancreatic RNase A (protein, UniProt P22069 1-104, looked up)
# Protein P-30: QDWLTFQKKHITNTRDVDCDNIMSTNLFHCKDKNTFIYSRPEPVKAICKGIIASKNVLTTSEFYLSDCNVTSRPCKYKLKKSTNKFCVTCENQAPVHFVGVGSC
# Legend:
# Assay type in all cases: cell-based, Human
# total pRB = test: Total pRB in U937 cells, anti-pRB^T mAb flow cytometry
# Text: (§1) Also shown are cells from the culture at higher cell density (>10^6 cells/ml) where proliferation declined because of cell crowding (d). The cells reacting with anti-pRB^P− were in G0/1 phase (open arrows). The dashed line indicates the upper level of background fluorescence, i.e. of the cells pretreated with alkaline phosphatase. The percentage of cells reacting with anti-pRB^P− mAb was increased in the ONCONASE®-treated and crowded cultures compared to the control. No significant changes in expression of pRB detected by the antibody that reacts with this protein regardless of its phosphorylation status (anti-pRB^T) were observed between ONCONASE®-treated and control cells (not shown).
# (§2) The status of phosphorylation of pRB in individual cells was monitored using a combination of anti-pRB antibodies, one specifically detecting underphosphorylated pRB (anti-pRb^P− mAb) and another which reacts with total pRB, regardless of its phosphorylation (anti-pRB^T mAb). […] The cells were then rinsed with PBS containing 1% BSA and their pRB associated green (anti-pRB^P−) and red (anti-PRB^T) fluorescence was measured by flow cytometry.
# (§3) Cellular fluorescence was measured with the ELITE ESP flow cytometer/cell sorter (Coulter, Miami, Fla., USA) using either argon ion laser (emission at 488 nm) alone or combined with helium-cadmium laser (emitting UV light). […]
# cyclin E = test: Cyclin E expression by multiparameter flow cytometry in U937 cells; conditions: U937 cells growing in presence of drug
# Procedure: (§4) Following incubations in the absence or presence of ONCONASE®, the cells were washed with phosphate-buffered saline (PBS) and fixed in suspension in either ice-cold 80% ethanol or absolute methanol for up to 24 h. After fixation, the cells were washed twice with PBS and then suspended in 1 ml of 0.25% Triton X-100 (Sigma, St. Louis, Mo., USA) in PBS on ice for 5 min. The cells were then centrifuged (300 g, 5 min), the cell pellet suspended 100 μl PBS containing 0.5 μg of the anti-cyclin (or anti-CKI) mAb and 1% bovine serum albumin (BSA; Sigma), and incubated for 2 h at room temperature. […]
# (§5) Cellular fluorescence was measured with the ELITE ESP flow cytometer/cell sorter (Coulter, Miami, Fla., USA) using either argon ion laser (emission at 488 nm) alone or combined with helium-cadmium laser (emitting UV light). In the first case, fluorescence signals were collected using the standard configuration of the flow cytometer (green fluorescence, representing directly or indirectly FITC-labeled antibodies; red fluorescence representing CYCHROME® tagged anti-pRB^T mAb). In the second case, DNA content was analyzed based on DAPI fluorescence (blue emission) excited by UV light, while the anti-pRB^P− mAb (FITC) and anti-pRB^T (Cy-Chrome®) related emission was excited with blue light laser.
# U937 cells = test: Growth and viability of U937 cells, trypan blue exclusion; conditions: U937, 170 nM (20 μg/ml)
# Text: FIG. […] The percentage of dead cells was estimated based on the trypan blue exclusion test. The percentage of cells in the respective phases was estimated flow cytometrically based on their DNA content. Apoptotic cells (Ap) were recognized as the cells with fractional DNA content (sub-G1), as previously described;
# Human histiocytic lymphoma U-937 cells were purchased from American Type Culture Collection (Manassas, Va., USA) and were maintained in RPMI 1640 medium supplemented with 10% fetal bovine serum, 100 U/ml of penicillin, 100 μg/ml streptomycin and 2 mM glutamine (all from Life Technologies, Grand Island, N.Y., USA). The suspension cultures were passaged by re-seeding the cells at a density of 1×10^5 cells/ml. The cells were studied during their exponential and asynchronous growth, generally within 72 hours of their re-seeding in medium with fresh serum, before reaching density of 8×10^5 cells/ml. The cultures were periodically tested for Mycoplasma infection by staining of cytocentrifuge preparations with the DNA fluorochrome 4,6-diamidino-2-phenylindole (DAPI; Molecular Probes, Eugene, Oreg., USA).
# ONCONASE®, provided by Alfacell (Bloomfield, N.J., USA), was diluted in RPMI to the final concentrations as shown in the Results below and figure legends above. […]
# p27^KIP1 [1] = test: p27^KIP1 expression by flow cytometry in U937 cells; conditions: U937, 170 nM, 72 hours
# Procedure: as §4, §5
# p21^WAF1/CIP1 [2] = test: Western blot of p21^WAF1/CIP1 in U937 cells; conditions: U937, 170 nM, 72 hours
# Text: (§6) To reveal specificity of the antibodies that were used, a standard immunoblotting procedure was used on cellular lysates.
# underphosphorylated pRB = test: pRB phosphorylation in U937 cells, anti-pRB^P− mAb flow cytometry; conditions: U937, 170 nM
# Text: as §1, §2, §3
# p21^WAF1/CIP1 [3] = test: p21^WAF1/CIP1 expression by flow cytometry in U937 cells; conditions: U937, 170 nM, 72 hours
# Procedure: as §4, §5
# p27^KIP1 [4] = test: Western blot of p27^KIP1 in U937 cells; conditions: U937, 17 and 170 nM, 72 h; not detected in Exp cells
# Text: as §6
# p16^INK4a = p16^INK4a expression by flow cytometry in U937 cells; conditions: U937, 170 nM, 72 hours
# Procedure: Proportions of cells in different phases of the cycle were the same as in FIG. 12;
# as §4, §5
molecule,measurement,setting,value
B1,effect on total pRB (anti-pRB^T),total pRB,no effect
same,expression of cyclin E,cyclin E,not significantly changed
same,cell proliferation suppressed,U937 cells; initial 72 hours of treatment,approximately 50%
same,cells dead,"U937 cells; initial 72 hours, trypan blue",< 10%
same,increase in p27^KIP1,p27^KIP1 [1],Over four-fold
same,"p21^WAF1/CIP1 band, Western blot",p21^WAF1/CIP1 [2],band only in the ONCONASE®-treated cells
same,proportion of cells stainable with anti-pRB^P−,underphosphorylated pRB; 48 h (control 2.4%),40.5%
same,proportion of cells stainable with anti-pRB^P−,underphosphorylated pRB; 72 h (control 2.4%),43.3%
same,increase in p21^WAF1/CIP1,p21^WAF1/CIP1 [3],Over four-fold
same,"p27^KIP1 bands, Western blot",p27^KIP1 [4],strong bands
same,increase in level of p16^INK4a,p16^INK4a,over six-fold
